The source of these data is publication PMC8385992.

Common to all, as to assay: SEC
Experiment [1] deals with SARS-CoV-2 Nsp15 N278A (SARS-CoV-2).
Experiment [2] deals with SARS-CoV-2 Nsp15 S294A (SARS-CoV-2).
In experiment [3] the target is SARS-CoV-2 Nsp15 W333A (SARS-CoV-2).
The target in experiment [4] is SARS-CoV-2 Nsp15 Y343A (SARS-CoV-2).

The stoichiometry N is the number of molecules, sites or subunits per partner or assembly. In experiment [1], SARS-CoV-2 Nsp15 N278A (enzyme) yielded a stoichiometry N of 6. SARS-CoV-2 Nsp15 S294A (enzyme) had a stoichiometry N in experiment [2] of 6. With SARS-CoV-2 Nsp15 W333A (enzyme), the stoichiometry N in experiment [3] stood at 6. Take SARS-CoV-2 Nsp15 Y343A (enzyme): in experiment [4], the stoichiometry N came to 6.
